Test: soluble on expression in E. coli; label from the status in PepcDB or PDB records

| Sequence | soluble on expression in E. coli |
| --- | --- |
| GPGSMSAGGRETAPMNLLRRRNKDEINGDVNAAADRFRNRFEKATLEERKAATTTMVNEYYDLVTDFYEYGWGQNFHFAPRYAGETFFESLARHEYFLAARGGFMEGDHIVDVGCGVGGPARNIVRLTRCNVTGVNNNDYQISRARRHDALAGMSCKIDYVKTDFCNMSLADNTFDGAYAIEATCHAKDKVKCYSEVFRVIKPGTCFVLYEWCMTDKYNPNDEYHRTIKHRIELGDGLPEMETCKQVIEYMKEAGFVVEEAIDVISQFESSPIKSIPWYQPLVGDYSSLQGLRSTPIGRILTNIMCRVLEFVHLAPKGTYKATEVLEEAAESLVVGGQLGIFTPSFYIRARKPSKQA | not soluble |
| MKFDVIIVGAGPGGMFAAYKLAGKLNTAIFEMGRDISKRKCPSDLSESYCTKCNPCNITSGVGGAGGLSDGKLNYVHPEYPSSFSVGGDFDFLDPNYLIEKMNEVDEIFLKHGAPDELYGDDLEKIEDFLKRANAAGIEFVPLRQRHVGSDELPKVVKSIEDKLKKEGVKIYTRKTVVDIDPERKVVRTEKGEEFGYDYLIIAVGRSGASWLEKWARDYNLEVAENSKAIDVGVRVEVPASIMDDITSAIYDPKLRVITKRHDDYMRTFCTCPRGWVIREDYGDFCLVNGHSKAKEKSSNTNFALLGHYEFTEPFDEPNEWGRDLARITTKLGGGNPIVQRLKDLRLGRRSTESRIKNNRLVQPTLKTAIPGDISLAYPGRAIDDILDALERLDKVIPGVADDSTLLYAPEVKFYSLKLKVDEWMKTNIPYIYAIGDGAGVSRGIVGAAVTGLIAAEGILRERGMELEHHHHHH | soluble |
| MNLTHQDFNLFNREIFTFKQLKEQQTSAEIDALKQTYKQHWEKWKALNLAIAQGLPAELGITKPKIESWTNGWNLRSHFWAAYRSEQRQAENACLALLLNKKQFQVYLMFQHYKSEERTGSVVAYNQLLNRLEAWSQTIDCEGYYIWPQEEHELVDHLPLKDYLADEKQRKILEERIGNRSFQIGKLWFATEKLETIEEKSCQALQELAPLYNALSEK | not soluble |
| MSLGLAIIHSRASIGVQAPPVTVEVHISNGMPGFTLVGLPETTVKESRDRVRSAIINSRFEFPAKRITVNLAPADLPKEGGRFDLPIALGILAASDQIARNKLESYEFIGELALSGEIRGVKGVLPAALAANQVERCLVVPHSNGDQAALVGVERHKSAQSLLEVCADLCGQQTLSLFQSSPSVQQVSQTRDLQDIIGQQQGKRALEIAAAGNHNLLFLGPPGTGKTMLASRLCDLLPEMSDEEAMETASIASLTQQEINQHNWKLRPFRAPHHSSSMAALVGGGTIPRPGEISLAHNGLLFLDEMPEFERKVLDSLREPLESGEIVISRAQGKTRFPARFQLVGALNPSPTGYYEGSQARANPQSILRYLSRLSGPLLDRFDMSIEIPALPKGTLANGGDRGESTAAVRQRVWVARERMLARSGKVNALLQSREIEQYCPLLKADAEFLESALHRLGLSIRAYHRIIKVARTIADLQGEAQIARPHLAEALGYRAMDRLLKQLSAQNEGHHHHHH | soluble |
| MNRRVPKSKSWKTRLSAGGANRTSLHGQMSRYPEVAEDYLIMQPSIRRSSGSDLMPVARFNNFKRWNSCLQHVESQPEDIREWDPPPPSSHCPQIYHKSQYSRRERSPDILTDDRGRPIPRRGMFLNAKYSEAARPPIDEDRIRHTEDVIKRMLYKGRRKESMGYYPNRNHLMRDQIRQTVYNLGVPNGYRAPEQDHFEDDYDDQPGPSNRHYGVSSHPEYYREDRWRLAEGDYEVDKGDGSRQLNKEKYLKKRRKQMIERESVDSEISEEEEEEEIYNKQTKRRRSQKTPIQHNKNRTESRLHQKEKSSSDEEVHEKSTSSRHSNVSRSSKSPYLNDDRAPSRGSKCTSSHHSTPKLLTPSPQYLKDSDDDDNWKNSIPFMSSSDGAGAGMRVRIGSAIASLPLRDDSKNSYSEVALMLLERSVKNLKNPQKMLIKEKPQTRIMNMSTSWAQQDPKKRNENDDDEIVPETEKAETSLMHDLSRIQHPQNATTVQMDQTLFTNSKLMKIDVAIAKNWLDTKMKKTLIPPPLFRSSPISEDVFKSSDRITMPSTIKGPESTAVGNRISSDGEEEDFATKQFDIDDYIARGASKIDFSKTITAPNTSFQEPSTSLFKDPTFFRQESKGNEMNIESFSERTPSKNRTSQQMEFQISTSSISKTKTNASLDSIHRRKSKPQPMLEFDAETQKMFDDAFQSDKKSTKEKYPF | not soluble |
| EVQLLEQSGAEVKKPGSSVQVSCKASGGTFSMYGFNWVRQAPGHGLEWMGGIIPIFGTSNYAQKFRGRVTFTADQATSTAYMELTNLRSDDTAVYYCARDFGPDWEDGDSYDGSGRGFFDFWGQGTLVTVSSASTKGPSVFPLAPSSKSTSGGTAALGCLVKDYFPEPVTVSWNSGALTSGVHTFPAVLQSSGLYSLSSVVTVPSSSLGTQTYICNVNHKPSNTKVDKKVEPKSCDKTS | soluble |

Source: the DeepSol protein solubility set
